# From PMC11796359, “Identification and characterization of the functional tetrameric UDP-glucose pyrophosphorylase from Klebsiella pneumoniae” (mBio, 2024)
# Residue numbers refer to the chain shown, from its start. Names may count otherwise.
# B1: Klebsiella pneumoniae UDP-glucose pyrophosphorylase (galU gene product), wild type (enzyme, UniProt A6TAK9 1-300, looked up)
# chain: MAALNSKVRKAVIPVAGLGTRMLPATKAIPKEMLPLVDKPLIQYVVNECIAAGITEIVLVTHSSKNSIENHFDTSFELEAMLEKRVKRQLLEEVQSICPPHVTIMQVRQGLAKGLGHAVLCAHPVVGDEPVAVILPDVILDEYESDLSRDNLAEMISRFDETGASQIMVEPVEDVTAYGVVDCKGESLKPGESVPMVGVVEKPKADVAPSNLAVVGRYVLSADIWPLLAKTPPGAGDEIQLTDAIDMLIEKETVEAYHMKGKSHDCGNKLGYMQAFVEYGIRHKTLGDDFKAWLETAVAK
# notes: UDP-glucose pyrophosphorylase (galU gene product) of K. pneumoniae subsp. pneumoniae type strain DSM 30104 (ATCC 13883, NCTC 9633), cloned from genomic DNA; UniProt entry printed for the AlphaFold query; 34.6 kDa with tag; no cleavage of the tag is described; Also made from pETDuet-1 with the same oligomeric state; also called KpUGP; KpUGP wt; not shown: Strep-tagII, N-terminal, kept
# B2: KpUGP K10A (enzyme)
# chain: B1 chain with K10A
# notes: UDP-glucose pyrophosphorylase (galU gene product) of K. pneumoniae DSM 30104; mutant of Strep-KpUGP; tag as in m1; no cleavage described
# B3: KpUGP K65R (enzyme)
# chain: B1 chain with K65R
# notes: as for B2
# B4: KpUGP D38N (enzyme)
# chain: B1 chain with D38N
# notes: as for B2
# B5: KpUGP F276A (enzyme)
# chain: B1 chain with F276A
# notes: as for B2
# B6: KpUGP E238Q (enzyme)
# chain: B1 chain with E238Q
# notes: as for B2
# B7: KpUGP E238A (enzyme)
# chain: B1 chain with E238A
# notes: as for B2
# B8: KpUGP D73N (enzyme)
# chain: B1 chain with D73N
# notes: as for B2
# B9: KpUGP E77Q (enzyme)
# chain: B1 chain with E77Q
# notes: as for B2
# B10: KpUGP D38A (enzyme)
# chain: B1 chain with D38A
# notes: as for B2
# B11: KpUGP E77A (enzyme)
# chain: B1 chain with E77A
# notes: as for B2
# B12: KpUGP R108K (enzyme)
# chain: B1 chain with R108K
# notes: UDP-glucose pyrophosphorylase (galU gene product) of K. pneumoniae DSM 30104; mutant of Strep-KpUGP; tag as in m1; no cleavage described; also called R108R (as printed once in the text)
# B13: KpUGP E238R (enzyme)
# chain: B1 chain with E238R
# notes: UDP-glucose pyrophosphorylase (galU gene product) of K. pneumoniae DSM 30104; mutant of Strep-KpUGP that mimics R237 of KpGalF; tag as in m1; no cleavage described
# B14: KpUGP K65A (enzyme)
# chain: B1 chain with K65A
# notes: as for B2
# B15: KpUGP K27A (enzyme)
# chain: B1 chain with K27A
# notes: as for B2
# B16: KpUGP D73A (enzyme)
# chain: B1 chain with D73A
# notes: UDP-glucose pyrophosphorylase (galU gene product) of K. pneumoniae DSM 30104; mutant of Strep-KpUGP; tag as in m1; no cleavage described; dissociates progressively during storage on ice
# B17: KpUGP E69A (enzyme)
# chain: B1 chain with E69A
# notes: as for B2
# B18: KpUGP R108A (enzyme)
# chain: B1 chain with R108A
# notes: as for B2
# B19: KpUGP E32A (enzyme)
# chain: B1 chain with E32A
# notes: UDP-glucose pyrophosphorylase (galU gene product) of K. pneumoniae DSM 30104; active site mutant of Strep-KpUGP; tag as in m1; the discussion speaks only of the mutant of E32; also called E32 mutant
# B20: KpUGP K10R (enzyme)
# chain: B1 chain with K10R
# notes: as for B2
# B21: KpUGP K27Q (enzyme)
# chain: B1 chain with K27Q
# notes: UDP-glucose pyrophosphorylase (galU gene product) of K. pneumoniae DSM 30104; mutant of Strep-KpUGP; tag as in m1; no cleavage described; eluted predominantly as dimers
# B22: KpUGP F276H (enzyme)
# chain: B1 chain with F276H
# notes: as for B2
# B23: KpUGP E69D (enzyme)
# chain: B1 chain with E69D
# notes: as for B2
# B24: Klebsiella pneumoniae GalF (galF gene product), wild type (natural protein, UniProt Q48447 1-298, looked up)
# chain: MNMANLKAVIPVAGLGMHMLPATKAIPKEMLPIVDKPMIQYIVDEIVAAGIKEIVLVTHSSKNAVENHFDTSYELEALLEQRVKRQLLAEVQAICPPGVTIMNVRQAQPLGLGHSILCARPVVGDNPFVVVLPDIILDGGTADPLRYNLAAMIARFNETGRSQVLAKRMPGDLSEYSVIQTKEPMVAEGQVARIVEFIEKPDEPQTLDSDLMAVGRYVLSADIWAELERTEPGAWGRIQLTDAIAELAKKQSVDAMLMTGESYDCGKKMGYMQAFVTYGMRNLKEGAKFRESIKKLLA
# notes: GalF (galF gene product) of K. pneumoniae subsp. pneumoniae type strain DSM 30104 (ATCC 13883, NCTC 9633), cloned from genomic DNA into MCS1 of pETDuet-1; UniProt entry printed for the AlphaFold query; 34.3 kDa with tag; no cleavage of the tag is described; also called KpGalF; KpGalF wt
# B25: KpGalF M17T/H18R/S115A/S177G/R237E (natural protein)
# chain: B24 chain with M17T, H18R, S115A, S177G, R237E
# notes: GalF (galF gene product) of K. pneumoniae DSM 30104; mutant of His-KpGalF; also called KpGalF quintuple mutant; quintuple revertant mutant
# Assays:
# [1] = biological target: the molecule itself; experiment: SEC; Superose 6 Increase 10/300 GL; 50 mM Tris-HCl (pH 8.0), 300 mM NaCl, 10 mM MgCl2; oligomeric state calculated from elution volumes of proteins of known size
# [2] = biological target: the molecule itself; experiment: not stated; data not shown; KpUGP in HEPES-NaOH (pH 8.0) buffer
# [3] = biological target: the molecule itself; experiment: native gel or EMSA; blue native PAGE, 4.5 µg of each protein on a uniform 12% native gel, followed by in-gel activity staining
# [4] = biological target: the molecule itself; experiment: SEC; Superose 6 Increase 10/300 GL; 50 mM Tris-HCl (pH 8.0), 300 mM NaCl, 10 mM MgCl2; oligomeric state calculated from elution volumes of proteins of known size; remark: listed apart in the source
# [5] = biological target: the molecule itself; experiment: SEC; Superdex 200 10/300 GL (KpUGP active site mutants); 50 mM Tris-HCl (pH 8.0), 300 mM NaCl, 10 mM MgCl2
Protein,stoichiometry N [1],stoichiometry N [3],other results
B1,4.5,–,stoichiometry N [2]: 4
B2,3.1,–,–
B3,2.4,–,–
B4,4.2,4,–
B5,4.6,4,–
B6,4.4,4,–
B7,4.4,4,–
B8,2.4,–,–
B9,4.6,4,–
B10,4.1,4,–
B11,4.5,4,–
B12,2.4,–,–
B13,–,–,stoichiometry N [4]: 3.1
B14,2,–,–
B15,2.1,–,–
B16,2.7,–,–
B17,4.4,4,–
B18,2.2,–,–
B19,–,–,stoichiometry N [5]: 2
B20,4.5,4,–
B21,2.2,–,–
B22,4.5,4,–
B23,4.6,4,–
B24,–,–,stoichiometry N [4]: 1.9
B25,–,–,stoichiometry N [4]: 1.7
